# In patent publication US20160166636A1:
# Square brackets hold non-standard residues; d marks the D form. Ends that are not written are not given here. Met(O) = CS(=O)CC[C@H](N)C(=O)O; pS = N[C@@H](COP(=O)(O)O)C(=O)O
# Tests used:
# [1] = target: Recombinant bovine HSC70 (Stressgen) (bovine) (UniProt P19120); test: SPR Biacore 3000, HSC70 immobilised on CM5, peptide as analyte 1.56-25 uM, 1:1 Langmuir global fit, 25 C
# [2] = target: Recombinant bovine HSC70 (Stressgen) (bovine) (UniProt P19120); test: SPR Biacore 3000, HSC70 immobilised, peptide analyte at 3.12 uM, 1:1 Langmuir fit
# [3] = target: Recombinant bovine HSC70 (Stressgen) (bovine) (UniProt P19120); test: SPR Biacore 3000, HSC70 immobilised, peptide analyte at 6.25 uM, 1:1 Langmuir fit
# [4] = target: Recombinant bovine HSC70 (Stressgen) (bovine) (UniProt P19120); test: SPR Biacore 3000, HSC70 immobilised, peptide analyte at 25 uM, 1:1 Langmuir fit
# [5] = target: Recombinant bovine HSC70 (Stressgen) (bovine) (UniProt P19120); test: SPR Biacore 3000, HSC70 immobilised, peptide analyte at 1.56 uM, 1:1 Langmuir fit
# [6] = target: Recombinant bovine HSC70 (Stressgen) (bovine) (UniProt P19120); test: SPR Biacore 3000, HSC70 immobilised, peptide analyte at 12.5 uM, 1:1 Langmuir fit
# Recombinant bovine HSC70 (Stressgen) (bovine), sequence (P19120 whole entry): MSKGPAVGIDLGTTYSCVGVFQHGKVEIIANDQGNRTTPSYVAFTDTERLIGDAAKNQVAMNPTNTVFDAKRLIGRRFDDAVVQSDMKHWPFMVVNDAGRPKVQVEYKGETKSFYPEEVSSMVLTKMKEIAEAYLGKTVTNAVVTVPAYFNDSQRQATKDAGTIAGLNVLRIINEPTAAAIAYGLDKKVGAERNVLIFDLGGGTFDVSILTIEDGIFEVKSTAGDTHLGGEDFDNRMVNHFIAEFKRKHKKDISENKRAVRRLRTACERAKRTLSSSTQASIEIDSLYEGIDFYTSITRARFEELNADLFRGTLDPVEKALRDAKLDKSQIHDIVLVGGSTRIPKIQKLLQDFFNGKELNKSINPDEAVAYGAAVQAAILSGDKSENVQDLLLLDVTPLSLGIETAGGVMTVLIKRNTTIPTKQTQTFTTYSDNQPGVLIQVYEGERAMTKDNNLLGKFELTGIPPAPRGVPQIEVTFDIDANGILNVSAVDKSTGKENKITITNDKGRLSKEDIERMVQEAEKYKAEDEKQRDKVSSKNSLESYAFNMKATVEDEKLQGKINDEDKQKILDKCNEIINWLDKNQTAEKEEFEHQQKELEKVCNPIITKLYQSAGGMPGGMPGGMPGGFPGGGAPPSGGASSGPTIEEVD
kon [1] [M⁻¹ s⁻¹],Ka [2] [M⁻¹],Kd [2] [µM],Req [2] [RU],kobs [2] [s⁻¹],koff [2] [s⁻¹],Ka [3] [M⁻¹],Kd [3] [µM],Req [3] [RU],kobs [3] [s⁻¹],koff [3] [s⁻¹],Ka [4] [M⁻¹],Kd [4] [µM],Req [4] [RU],kobs [4] [s⁻¹],koff [4] [s⁻¹],Ka [5] [M⁻¹],Kd [5] [µM],Req [5] [RU],kobs [5] [s⁻¹],Binder,also measured
450,144000,6.94,25.8,0.00452,0.00312,144000,6.94,39.5,0.00593,0.00312,144000,6.94,65.2,0.0144,0.00312,144000,6.94,15.3,0.00382,RIHMVYSKR[pS]GKPRGYAFIEY [P140 peptide (peptide consisting of SEQ ID NO: 1 in which serine at position 10 is phosphorylated)],koff [5]: 0.00312 s⁻¹; Ka [6]: 144000 M⁻¹; Kd [6]: 6.94 µM; Req [6]: 53.6 RU; kobs [6]: 0.00874 s⁻¹; koff [6]: 0.00312 s⁻¹
1150,524000,1.91,24.2,0.0058,0.0022,524000,1.91,29.9,0.0094,0.0022,524000,1.91,36.3,0.031,0.0022,524000,1.91,17.6,0.004,RIH[Met(O)]VYSKR[pS]GKPRGYAFIEY,koff [5]: 0.0022 s⁻¹; Ka [6]: 524000 M⁻¹; Kd [6]: 1.91 µM; Req [6]: 33.9 RU; kobs [6]: 0.0166 s⁻¹; koff [6]: 0.0022 s⁻¹
